US20140087995A1 (published 2014)
Numbered stars: 1 amine (or outer) side, 2 acyl side, 3 side chain; on linkers, the order of the positions; unused ones are H or OH. Bridge positions count the residues as written; N and C are the ends. Side chains are listed from the residue outwards. Ends that are not written are not given here. * marks the point of attachment. C20 diacid = O=C(O)CCCCCCCCCCCCCCCCCCC(=O)*; C18 diacid = O=C(O)CCCCCCCCCCCCCCCCC(=O)*; C16 diacid = O=C(O)CCCCCCCCCCCCCCC(=O)*; γGlu = O=C(O)[C@H](CCC(=O)[*:2])N[*:1]; C14 diacid = O=C(O)CCCCCCCCCCCCC(=O)*; AEEA = NCCOCCOCC(=O)O

T1: human calcitonin receptor (human, UniProt P30988 25-474)
T1 sequence (looked up): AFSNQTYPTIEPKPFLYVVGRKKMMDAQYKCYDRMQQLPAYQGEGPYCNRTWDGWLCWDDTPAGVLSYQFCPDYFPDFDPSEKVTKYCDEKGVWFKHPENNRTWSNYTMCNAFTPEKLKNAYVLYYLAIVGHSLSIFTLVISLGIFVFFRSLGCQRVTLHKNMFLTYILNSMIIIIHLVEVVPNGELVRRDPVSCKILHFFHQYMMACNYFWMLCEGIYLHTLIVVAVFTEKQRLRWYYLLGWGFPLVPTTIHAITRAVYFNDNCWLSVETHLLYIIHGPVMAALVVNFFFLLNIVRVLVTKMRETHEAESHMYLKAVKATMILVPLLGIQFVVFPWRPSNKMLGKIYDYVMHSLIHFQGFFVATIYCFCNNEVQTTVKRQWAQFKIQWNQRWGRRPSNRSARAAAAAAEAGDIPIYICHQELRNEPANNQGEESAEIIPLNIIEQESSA

T2: human amylin receptor (amylin 3(a) receptor: human calcitonin receptor coexpressed with RAMP-3) (human, UniProt P30988 25-474; O60896 24-148)
T2 sequence (looked up) 1: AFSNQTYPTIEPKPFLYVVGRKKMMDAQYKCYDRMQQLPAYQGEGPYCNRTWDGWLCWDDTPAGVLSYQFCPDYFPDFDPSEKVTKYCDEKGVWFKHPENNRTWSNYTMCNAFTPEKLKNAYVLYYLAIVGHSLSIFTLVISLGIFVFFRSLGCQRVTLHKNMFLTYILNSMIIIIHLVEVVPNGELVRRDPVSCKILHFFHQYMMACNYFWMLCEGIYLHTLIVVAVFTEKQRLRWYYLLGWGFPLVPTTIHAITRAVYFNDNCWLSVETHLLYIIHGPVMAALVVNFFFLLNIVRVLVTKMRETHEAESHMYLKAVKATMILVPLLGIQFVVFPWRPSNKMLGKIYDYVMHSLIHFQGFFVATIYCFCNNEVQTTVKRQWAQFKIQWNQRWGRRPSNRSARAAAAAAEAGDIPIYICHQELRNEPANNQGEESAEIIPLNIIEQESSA
T2 sequence (looked up) 2: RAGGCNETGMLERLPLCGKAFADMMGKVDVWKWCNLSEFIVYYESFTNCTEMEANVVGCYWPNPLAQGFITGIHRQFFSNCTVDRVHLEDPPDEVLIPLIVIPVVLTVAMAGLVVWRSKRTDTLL


Experiments:
[1] = target: T1, human calcitonin receptor; assay: cell-based or functional assay
[2] = target: T2, human amylin receptor (amylin 3(a) …); assay: cell-based or functional assay

Ratio hCT/hAmylin funct. [1] | hCTR funct. EC50 (pM) [1] | hAmylin-R funct. EC50 (pM) [2] | Binder
10 | 818 pM | 82 pM | {C20 diacid-γGlu}-GRCNTATCATQRLAHFLRHSSPNFGAIPSSTNVGSNTY-NH2 (disulfide 3-8; SMILES CC[C@H](C)[C@H](NC(=O)[C@H](C)NC(=O)CNC(=O)[C@H](Cc1ccccc1)NC(=O)[C@H](CC(N)=O)NC(=O)[C@@H]1CCCN1C(=O)[C@H](CO)NC(=O)[C@H](CO)NC(=O)[C@H](Cc1c[nH]cn1)NC(=O)[C@H](CCCNC(=N)N)NC(=O)[C@H](CC(C)C)NC(=O)[C@H](Cc1ccccc1)NC(=O)[C@H](Cc1c[nH]cn1)NC(=O)[C@H](C)NC(=O)[C@H](CC(C)C)NC(=O)[C@H](CCCNC(=N)N)NC(=O)[C@H](CCC(N)=O)NC(=O)[C@@H](NC(=O)[C@H](C)NC(=O)[C@@H]1CSSC[C@H](NC(=O)[C@H](CCCNC(=N)N)NC(=O)CNC(=O)CC[C@H](NC(=O)CCCCCCCCCCCCCCCCCCC(=O)O)C(=O)O)C(=O)N[C@@H](CC(N)=O)C(=O)N[C@@H]([C@@H](C)O)C(=O)N[C@@H](C)C(=O)N[C@@H]([C@@H](C)O)C(=O)N1)[C@@H](C)O)C(=O)N1CCC[C@H]1C(=O)N[C@@H](CO)C(=O)N[C@@H](CO)C(=O)N[C@H](C(=O)N[C@@H](CC(N)=O)C(=O)N[C@H](C(=O)NCC(=O)N[C@@H](CO)C(=O)N[C@@H](CC(N)=O)C(=O)N[C@H](C(=O)N[C@@H](Cc1ccc(O)cc1)C(N)=O)[C@@H](C)O)C(C)C)[C@@H](C)O, 38 residues: Gly added before position 1 of human amylin; also called compound 99)
33 | 11800 pM | 356 pM | K([AEEA-AEEA-γGlu-C20 diacid])CNTATCATQRLANFLRHSSPNFGAIPSSTNVGHNTY-NH2 (disulfide 2-7; N-terminus assumed; SMILES CC[C@H](C)[C@H](NC(=O)[C@H](C)NC(=O)CNC(=O)[C@H](Cc1ccccc1)NC(=O)[C@H](CC(N)=O)NC(=O)[C@@H]1CCCN1C(=O)[C@H](CO)NC(=O)[C@H](CO)NC(=O)[C@H](Cc1c[nH]cn1)NC(=O)[C@H](CCCNC(=N)N)NC(=O)[C@H](CC(C)C)NC(=O)[C@H](Cc1ccccc1)NC(=O)[C@H](CC(N)=O)NC(=O)[C@H](C)NC(=O)[C@H](CC(C)C)NC(=O)[C@H](CCCNC(=N)N)NC(=O)[C@H](CCC(N)=O)NC(=O)[C@@H](NC(=O)[C@H](C)NC(=O)[C@@H]1CSSC[C@H](NC(=O)[C@@H](N)CCCCNC(=O)COCCOCCNC(=O)COCCOCCNC(=O)CC[C@H](NC(=O)CCCCCCCCCCCCCCCCCCC(=O)O)C(=O)O)C(=O)N[C@@H](CC(N)=O)C(=O)N[C@@H]([C@@H](C)O)C(=O)N[C@@H](C)C(=O)N[C@@H]([C@@H](C)O)C(=O)N1)[C@@H](C)O)C(=O)N1CCC[C@H]1C(=O)N[C@@H](CO)C(=O)N[C@@H](CO)C(=O)N[C@H](C(=O)N[C@@H](CC(N)=O)C(=O)N[C@H](C(=O)NCC(=O)N[C@@H](Cc1c[nH]cn1)C(=O)N[C@@H](CC(N)=O)C(=O)N[C@H](C(=O)N[C@@H](Cc1ccc(O)cc1)C(N)=O)[C@@H](C)O)C(C)C)[C@@H](C)O, also called compound 97)
65.1 | 2210 pM | 34 pM | K([γGlu-C16 diacid])CNTATCATQRLANFLRHSSPNFGAIPSSTNVGHNTY-NH2 (disulfide 2-7; N-terminus assumed; SMILES CC[C@H](C)[C@H](NC(=O)[C@H](C)NC(=O)CNC(=O)[C@H](Cc1ccccc1)NC(=O)[C@H](CC(N)=O)NC(=O)[C@@H]1CCCN1C(=O)[C@H](CO)NC(=O)[C@H](CO)NC(=O)[C@H](Cc1c[nH]cn1)NC(=O)[C@H](CCCNC(=N)N)NC(=O)[C@H](CC(C)C)NC(=O)[C@H](Cc1ccccc1)NC(=O)[C@H](CC(N)=O)NC(=O)[C@H](C)NC(=O)[C@H](CC(C)C)NC(=O)[C@H](CCCNC(=N)N)NC(=O)[C@H](CCC(N)=O)NC(=O)[C@@H](NC(=O)[C@H](C)NC(=O)[C@@H]1CSSC[C@H](NC(=O)[C@@H](N)CCCCNC(=O)CC[C@H](NC(=O)CCCCCCCCCCCCCCC(=O)O)C(=O)O)C(=O)N[C@@H](CC(N)=O)C(=O)N[C@@H]([C@@H](C)O)C(=O)N[C@@H](C)C(=O)N[C@@H]([C@@H](C)O)C(=O)N1)[C@@H](C)O)C(=O)N1CCC[C@H]1C(=O)N[C@@H](CO)C(=O)N[C@@H](CO)C(=O)N[C@H](C(=O)N[C@@H](CC(N)=O)C(=O)N[C@H](C(=O)NCC(=O)N[C@@H](Cc1c[nH]cn1)C(=O)N[C@@H](CC(N)=O)C(=O)N[C@H](C(=O)N[C@@H](Cc1ccc(O)cc1)C(N)=O)[C@@H](C)O)C(C)C)[C@@H](C)O) [N^ε1-[(4S)-4-carboxy-4-(15-carboxypentadecanoylamino)butanoyl]-[Arg17,Pro21,Pro27,His34]-h-amylin]
38.8 | 1090 pM | 28 pM | K([γGlu-C14 diacid])CNTATCATQRLANFLRHSSPNFGAIPSSTNVGHNTY-NH2 (disulfide 2-7; N-terminus assumed; SMILES CC[C@H](C)[C@H](NC(=O)[C@H](C)NC(=O)CNC(=O)[C@H](Cc1ccccc1)NC(=O)[C@H](CC(N)=O)NC(=O)[C@@H]1CCCN1C(=O)[C@H](CO)NC(=O)[C@H](CO)NC(=O)[C@H](Cc1c[nH]cn1)NC(=O)[C@H](CCCNC(=N)N)NC(=O)[C@H](CC(C)C)NC(=O)[C@H](Cc1ccccc1)NC(=O)[C@H](CC(N)=O)NC(=O)[C@H](C)NC(=O)[C@H](CC(C)C)NC(=O)[C@H](CCCNC(=N)N)NC(=O)[C@H](CCC(N)=O)NC(=O)[C@@H](NC(=O)[C@H](C)NC(=O)[C@@H]1CSSC[C@H](NC(=O)[C@@H](N)CCCCNC(=O)CC[C@H](NC(=O)CCCCCCCCCCCCC(=O)O)C(=O)O)C(=O)N[C@@H](CC(N)=O)C(=O)N[C@@H]([C@@H](C)O)C(=O)N[C@@H](C)C(=O)N[C@@H]([C@@H](C)O)C(=O)N1)[C@@H](C)O)C(=O)N1CCC[C@H]1C(=O)N[C@@H](CO)C(=O)N[C@@H](CO)C(=O)N[C@H](C(=O)N[C@@H](CC(N)=O)C(=O)N[C@H](C(=O)NCC(=O)N[C@@H](Cc1c[nH]cn1)C(=O)N[C@@H](CC(N)=O)C(=O)N[C@H](C(=O)N[C@@H](Cc1ccc(O)cc1)C(N)=O)[C@@H](C)O)C(C)C)[C@@H](C)O) [N^ε1-[(4S)-4-carboxy-4-(13-carboxytridecanoylamino)butanoyl]-[Arg17,Pro21,Pro27,His34]-h-amylin]
60.9 | 5850 pM | 96 pM | K([γGlu-C18 diacid])CNTATCATQRLANFLRHSSPNFGAIPSSTNVGHNTY-NH2 (disulfide 2-7; N-terminus assumed; SMILES CC[C@H](C)[C@H](NC(=O)[C@H](C)NC(=O)CNC(=O)[C@H](Cc1ccccc1)NC(=O)[C@H](CC(N)=O)NC(=O)[C@@H]1CCCN1C(=O)[C@H](CO)NC(=O)[C@H](CO)NC(=O)[C@H](Cc1c[nH]cn1)NC(=O)[C@H](CCCNC(=N)N)NC(=O)[C@H](CC(C)C)NC(=O)[C@H](Cc1ccccc1)NC(=O)[C@H](CC(N)=O)NC(=O)[C@H](C)NC(=O)[C@H](CC(C)C)NC(=O)[C@H](CCCNC(=N)N)NC(=O)[C@H](CCC(N)=O)NC(=O)[C@@H](NC(=O)[C@H](C)NC(=O)[C@@H]1CSSC[C@H](NC(=O)[C@@H](N)CCCCNC(=O)CC[C@H](NC(=O)CCCCCCCCCCCCCCCCC(=O)O)C(=O)O)C(=O)N[C@@H](CC(N)=O)C(=O)N[C@@H]([C@@H](C)O)C(=O)N[C@@H](C)C(=O)N[C@@H]([C@@H](C)O)C(=O)N1)[C@@H](C)O)C(=O)N1CCC[C@H]1C(=O)N[C@@H](CO)C(=O)N[C@@H](CO)C(=O)N[C@H](C(=O)N[C@@H](CC(N)=O)C(=O)N[C@H](C(=O)NCC(=O)N[C@@H](Cc1c[nH]cn1)C(=O)N[C@@H](CC(N)=O)C(=O)N[C@H](C(=O)N[C@@H](Cc1ccc(O)cc1)C(N)=O)[C@@H](C)O)C(C)C)[C@@H](C)O) [N^ε1-[(4S)-4-carboxy-4-(17-carboxyheptadecanoylamino)butanoyl]-[Arg17,Pro21,Pro27,His34]-h-amylin]
